Measured values reported in the supplement of paper PMC9170038.

Tested on: MS2 coat protein
Test: apparent KD of MS2 coat protein; designed switch direction (-1 OFF switch, 1 ON switch): -1; higher = weaker reporter binding
Procedure, shortened: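 Apparent KD, taken as the median over clusters for each design, was obtained by curve-fitting normalised cluster fluorescence. Designed RNA switches had been transcribed on Illumina chips by stalled E. coli RNA polymerase and titrated with SNAP-549-labelled MS2 coat protein, doubling from 0.7 or 1.5 nM to 3 µM.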

[1] = Eterna round: R95, input ligand: microRNA oligo, concentration not stated
[2] = input ligand: microRNA oligo, concentration not stated
[3] = Eterna round: R95, input ligand: FMN 200 uM
[4] = Eterna round: R95, input ligand: none

Sequence | apparent KD of MS2 coat protein [1] [nM] | apparent KD of MS2 coat protein (input ligand: FMN 200 uM) [nM] | apparent KD of MS2 coat protein [2] [nM] | apparent KD of MS2 coat protein (input ligand: none) [nM] | apparent KD of MS2 coat protein [3] [nM] | apparent KD of MS2 coat protein [4] [nM]
CCUCCACAUGAGGAUCACCCAUGUCAGGAUAUCGUGUGUUUUUUUUCGGUCGUGCGUGCGAGAAGGGACGUCUU (puzzle: Exclusion 1) | 24.8 |  |  |  |  | 
AGUUGGCGAGGAUAUACAUGAGGAUCACCCAUGUGAAAUAUAAGAGUGAGGAAGAAAAGUAGAAGGCGCUGACA [Mat - Exclusion 3 - Mod of Salish D43] (puzzle: Exclusion 3) | 80.4 |  |  |  |  | 
CGAUGCUCGAAUCCACAUGAGGAUCACCCAUGUCGAGUUAGCGAGGAUAUCGGAGACACAUAGUAUGAGAAGGCGCGAACCUGA [Ex NG3 #23] (Eterna round: R96, puzzle: Exclusion NG 3) |  | 15.5 | 10.5 | 12.1 |  | 
UUCUCGUCAGGAUAUUUGUUGUUGUUGGAAACGGCGGCGGCGGAGAAGGGACAUGAGGAUCACCCAUGUCUGGU [-27.7, -24.8 kcal, 20% A] (Eterna round: R97, puzzle: Exclusion 4) |  | 28.5 |  | 21.2 |  | 
GUUAAACAUGAGGAUCACCCAUGUAAGGAUAUGCUGAGGUCGCGCUGACGUGAAUGAAGCAGAAGGUACAAAUG [Mat - Mod of JL D63] (puzzle: Exclusion 1) | 76.7 |  |  |  | 79.5 | 60.8
CACAUGUCAGGAUAUGGUCAAGACACAGAAUUAGCUGCGAGCCAGAAGGGACAUGAGGAUCACCCAUGUUCCUG [Eternabot (L1) Solution 58] (Eterna round: R97, puzzle: Exclusion 4) |  | 19.5 |  | 16.3 |  | 
GUAUAACAUGAGGAUCACCCAUGUCAGGAUAUGCGAAUUUCAUCAAAAGAUGAAAUUUGCAGAAGGGACUGUAC [Omei Ex1 A25] (Eterna round: R97, puzzle: Exclusion 1) |  | 73.9 |  | 67.6 |  | 
UGAUUCGGAGGAUAUACAUGAGGAUCACCCAUGUUACCGGAAGGUAGGAGAGGUCGCCGUAGAAGGCUGCACAU [Eternabot (Original) Solution 7] (Eterna round: R97, puzzle: Exclusion 3) |  | 30.4 |  | 31.5 |  | 
AAAAAACAAGGAUAUACGGAUGAAGAGAGUCUUAAUUUUUGACAUGAGGAUCACCCAUGUAGAAGGUGUUAAAA [JR_Exclusion2_Sub017] (puzzle: Exclusion 2) | 44.4 |  |  |  | 58.9 | 50.5
GAUCAUGCAGGAUAUACAUGGAACAUGAAAACAUGAAUUUCACAUGAGGAUCACCCAUGUAGAAGGGCAUGAUC [Omei Ex2 A12] (Eterna round: R97, puzzle: Exclusion 2) |  | 54.2 |  | 579 |  | 
CUGAUGUCAGGAUAUCGGUGGCUCACUUGUGUGUGCCAGUUCGAGAAGGGACAUGAGGAUCACCCAUGUUUUUA [Exclusion 4 (Mod2 of #36 by Marzena11)] (Eterna round: R97, puzzle: Exclusion 4) |  | 486 |  | 75.2 |  | 
ACUCGCACUGUAAGGAUAUGCAAUUACGAAAGUGAGCAGAAGGUACAUGAGGAUCACCCAUGUGCGAAUCAGUG [Eternabot (Original) Solution 36] (Eterna round: R97, puzzle: Brourd's mod of Exclusion 4) |  | 18.9 |  | 20 |  | 
GGGUGACAUGAGGAUCACCCAUGUCAGGAUAUGAUACUAUGUACUUCGGUACAUAGUAUCAGAAGGGACAUCAU [Ex1-3: 14] (puzzle: Exclusion 1) | 216 |  |  |  |  | 
CUAAAUCAUGUAGGAUAUGCGUGGCAAAGCUAUGCAGAAGGACAUGAGGAUCACCCAUGUCAUUCCGUCUGCGUACAGACGGGA [Mat - Exclusion NG 1 - Mod of JL - D49] (Eterna round: R96, puzzle: Exclusion NG 1) |  | 187 | 19.9 | 24.9 |  | 
UUCCUCAUAACAUGAGGAUCACCCAUGUAUUAAUAGAUAACUGAGGAUAUACUAAUAAUGUUUAUGUAGAAGGCAGAUACAGAU [JR_ExcNG3_Sub014] (Eterna round: R96, puzzle: Exclusion NG 3) |  |  | 40 |  |  | 
CUACUGAAGCUUUGCUUUAGUCGACAUGAGGAUCACCCAUGUUAGGAUAUGGUAGGCUUUGCUUACUAGAAGGAUAGAGUGAUC [salish99_ExNG3_r04_603] (Eterna round: R96, puzzle: Exclusion NG 3) |  | 121 | 55.9 | 54.8 |  | 

Sequence | apparent KD of MS2 coat protein [1] [nM] | apparent KD of MS2 coat protein (input ligand: FMN 200 uM) [nM] | apparent KD of MS2 coat protein [2] [nM] | apparent KD of MS2 coat protein (input ligand: none) [nM] | apparent KD of MS2 coat protein [3] [nM] | apparent KD of MS2 coat protein [4] [nM]
CCCUCGGGAGGAUAUGGGUGUUUUUACAUGAGGAUCACCCAUGUAGAGUAAUAUGUGGGUCCAGAAGGCCCAAGGG [-26, -24.7 kcal, 25% A] (Eterna round: R97, puzzle: Exclusion 5) |  | 86.9 |  | 210 |  | 
AGAUCGUCAGGAUAUACAUGAGGAUCACCCAUGUAUAGUCUAAAUUUGACUAUAAGAUGUAGAAGGGACGAUCG [Exclusion 3 (MOD5 of #1 Marzena11)] (Eterna round: R97, puzzle: Exclusion 3) |  | 75.8 |  | 21.4 |  | 
GGAGGAGAGUUAGGAUAUACAAGAAGAAUGUGAGUAGAAGGAACGGAACAUGAGGAUCACCCAUGUCCCAUGUGGAGGAGGAGG [Kawasakiqro] (Eterna round: R96, puzzle: Exclusion NG 1) |  | 46.2 | 25.3 | 30.9 |  | 
AUUCCUCCUGUGAGGAUAUGCGUUACGCACCCGUCGCAGAAGGCACAUGAGGAUCACCCAUGUGAGUUACCAAU [BmEX4 A.11] (Eterna round: R97, puzzle: Brourd's mod of Exclusion 4) |  | 166 |  | 18.9 |  | 
UGAUCAGACCGAGGAUAUAUAUGUAGGACCCACGUGAGUGGGUCCAGAACAUGAGGAUCACCCAUGUAGAAGGCGGUCUGAUCU [JL ENG2 1.88] (Eterna round: R96, puzzle: Exclusion NG 2) |  | 19 | 11.5 | 16.2 |  | 
ACACUACAUGAGGAUCACCCAUGUCAGGAUAUCGAUAUCACAACUCAUCAACCUCACUCGAGAAGGGACACAUA [wifeneedsadrink] (puzzle: Exclusion 1) | 22.1 |  |  |  |  | 
ACAUCACAGCUAGGAUAUAGAUGACAUGAGGAUCACCCAUGUUGUCCCAUGUUGACGAAAACCGACUAGAAGGAGCUACAGAUG [Ex NG2 #5] (Eterna round: R96, puzzle: Exclusion NG 2) |  | 59.3 | 52.6 | 50.1 |  | 
GCCCUUAUUGUUAGGAUAUAACGGAAAUACAACCGUUAGAAGGAACAUGAGGAUCACCCAUGUGCCAUACAGCC [Eternabot (Original) Solution 39] (Eterna round: R97, puzzle: Brourd's mod of Exclusion 4) |  | 119 |  | 29.5 |  | 
ACAUGAGGAUCACCCAUGUGCACGUAAUGGCUCAUGUAGAGUGAGGAUAUGCGUGGCGAACGAGCGCAGAAGGCACAAGACUGG [Deportation 17 - Jieux - Exclusion NG 3] (Eterna round: R96, puzzle: Exclusion NG 3) |  | 106 | 56.4 | 72.6 |  | 
AUAAUGUGAGGAUAUCACGCCCAAAUAAAUGGGCGAAAUAAUGAGAAGGCACAUGAGGAUCACCCAUGUCCGAA [EX4 A.25] (Eterna round: R97, puzzle: Exclusion 4) |  | 180 |  | 33.5 |  | 
CAGCUGAAUGUGAGGAUAUCUAGAGCCUCGGCUCUAGAGAAGGCACAUGAGGAUCACCCAUGUCUCAACAGCUG [BmEx4/2-A2] (Eterna round: R97, puzzle: Brourd's mod of Exclusion 4) |  | 249 |  | 35.9 |  | 
AAUGAUUGACGAGGAUAUUGUGGUAAAACACGACGAGAAGGCGUAUGUCACAUGAGGAUCACCCAUGUGAGCUUUGUGGAUAUA [Ex NG1 #71] (Eterna round: R96, puzzle: Exclusion NG 1) |  | 31.4 | 23.4 | 35.5 |  | 
UUUUUGUGAGGAUAUCAGUAGUAAAAUAAAUAAAUUACUACUGAGAAGGCACAUGAGGAUCACCCAUGUUCCUU [Mat - Exclusion 4 - Mod of Salish - D66] (puzzle: Exclusion 4) | 13.7 |  |  |  |  | 
AAUUAGUAUGUGAGGAUAUUGAUGUAAUGAUGGUUUAAGAAGGCACAUGAGGAUCACCCAUGUAGGAAAUCACG [JR_BMEx4_Sub006] (Eterna round: R97, puzzle: Brourd's mod of Exclusion 4) |  | 37.8 |  | 29 |  | 
AUCGGCUCAGUCAGGAUAUGAUUGAAUCGUUGCAAUUAGAAGGGACAUGAGGAUCACCCAUGUGCGGUGCGGUC [Eternabot (L1) Solution 27] (Eterna round: R97, puzzle: Brourd's mod of Exclusion 4) |  | 178 |  | 169 |  | 
